PMC5663869 (2017)
Where no end group is shown, it is not given here.

Key:
BAZ2B PHD–BRD = BAZ2B PHD–BRD (human, UniProt Q9UIF8 1-2168); test: ITC
BAZ2B BRD = BAZ2B BRD (human, UniProt Q9UIF8 1-2168); test: ITC
Sequence of BAZ2B BRD (Q9UIF8 whole entry): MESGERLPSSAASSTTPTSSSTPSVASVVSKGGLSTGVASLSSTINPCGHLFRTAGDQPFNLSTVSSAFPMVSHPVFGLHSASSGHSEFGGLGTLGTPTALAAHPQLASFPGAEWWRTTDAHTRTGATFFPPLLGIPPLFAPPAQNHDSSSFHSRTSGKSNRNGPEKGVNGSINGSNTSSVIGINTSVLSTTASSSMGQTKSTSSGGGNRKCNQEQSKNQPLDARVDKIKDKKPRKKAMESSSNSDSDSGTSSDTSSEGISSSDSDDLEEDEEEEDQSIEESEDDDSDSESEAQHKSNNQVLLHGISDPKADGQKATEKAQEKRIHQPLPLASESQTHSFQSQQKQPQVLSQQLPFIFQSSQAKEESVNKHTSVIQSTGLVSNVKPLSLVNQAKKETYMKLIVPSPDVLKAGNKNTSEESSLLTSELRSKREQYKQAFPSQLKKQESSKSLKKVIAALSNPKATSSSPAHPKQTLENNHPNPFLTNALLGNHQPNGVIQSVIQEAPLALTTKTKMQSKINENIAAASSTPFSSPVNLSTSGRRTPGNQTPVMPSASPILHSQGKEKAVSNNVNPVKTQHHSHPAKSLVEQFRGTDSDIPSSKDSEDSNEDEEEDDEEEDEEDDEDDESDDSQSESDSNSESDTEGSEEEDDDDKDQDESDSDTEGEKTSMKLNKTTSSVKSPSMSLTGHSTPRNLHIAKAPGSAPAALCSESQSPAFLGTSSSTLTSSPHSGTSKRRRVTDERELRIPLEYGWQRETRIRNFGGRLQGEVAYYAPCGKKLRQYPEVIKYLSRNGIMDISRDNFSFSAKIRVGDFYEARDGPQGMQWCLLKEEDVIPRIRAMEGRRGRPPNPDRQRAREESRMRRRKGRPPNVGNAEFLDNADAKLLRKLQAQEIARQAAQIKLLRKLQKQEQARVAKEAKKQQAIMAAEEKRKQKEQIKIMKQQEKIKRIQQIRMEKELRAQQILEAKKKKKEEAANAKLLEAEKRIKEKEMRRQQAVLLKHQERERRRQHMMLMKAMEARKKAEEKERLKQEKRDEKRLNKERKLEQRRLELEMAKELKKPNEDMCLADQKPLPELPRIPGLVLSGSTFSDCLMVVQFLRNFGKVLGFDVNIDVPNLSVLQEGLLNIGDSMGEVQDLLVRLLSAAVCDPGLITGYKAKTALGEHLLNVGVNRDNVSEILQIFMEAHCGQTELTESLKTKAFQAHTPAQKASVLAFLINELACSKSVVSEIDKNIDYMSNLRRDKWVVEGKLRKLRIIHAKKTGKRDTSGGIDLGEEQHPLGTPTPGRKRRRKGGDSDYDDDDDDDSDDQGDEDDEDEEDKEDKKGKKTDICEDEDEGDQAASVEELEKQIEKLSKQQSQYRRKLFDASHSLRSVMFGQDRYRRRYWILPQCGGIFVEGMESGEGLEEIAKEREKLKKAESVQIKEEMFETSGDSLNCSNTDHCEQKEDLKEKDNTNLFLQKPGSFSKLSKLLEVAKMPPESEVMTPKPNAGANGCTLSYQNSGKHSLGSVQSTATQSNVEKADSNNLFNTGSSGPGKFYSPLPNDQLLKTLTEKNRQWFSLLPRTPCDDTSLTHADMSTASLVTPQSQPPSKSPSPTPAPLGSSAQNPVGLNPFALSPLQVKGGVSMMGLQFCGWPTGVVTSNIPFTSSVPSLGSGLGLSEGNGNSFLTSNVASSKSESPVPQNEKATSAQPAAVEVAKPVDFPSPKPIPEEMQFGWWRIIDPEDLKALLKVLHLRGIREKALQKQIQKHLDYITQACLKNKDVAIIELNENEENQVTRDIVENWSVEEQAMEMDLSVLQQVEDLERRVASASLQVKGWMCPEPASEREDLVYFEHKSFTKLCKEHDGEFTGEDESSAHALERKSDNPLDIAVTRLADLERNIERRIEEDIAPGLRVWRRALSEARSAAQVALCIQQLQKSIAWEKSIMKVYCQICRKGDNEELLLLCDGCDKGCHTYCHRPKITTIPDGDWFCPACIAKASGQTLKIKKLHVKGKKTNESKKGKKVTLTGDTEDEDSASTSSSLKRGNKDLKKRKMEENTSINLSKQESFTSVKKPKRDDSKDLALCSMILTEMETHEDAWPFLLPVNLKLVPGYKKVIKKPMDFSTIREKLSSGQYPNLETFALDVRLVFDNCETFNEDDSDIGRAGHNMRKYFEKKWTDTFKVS

Sequence of BAZ2B PHD–BRD (Q9UIF8 whole entry): as above

- Kd (BAZ2B PHD–BRD): 10 µM
- Kd (BAZ2B BRD): 8.2 µM
B1: histone H3(11–21aa)K14ac peptide (peptide)
peptide: TGGK(Ac)APRKQLA
